Molecular target: human Erk2 (extracellular signal-regulated kinase 2), purchased from Sigma (human), P28482
Assay: ELISA, purified clone 500 ng/well on immobilised antigen, anti-FLAG-HRP detection

human Erk2 (extracellular signal-regulated kinase 2), purchased from Sigma (human), P28482, sequence (P28482 whole entry): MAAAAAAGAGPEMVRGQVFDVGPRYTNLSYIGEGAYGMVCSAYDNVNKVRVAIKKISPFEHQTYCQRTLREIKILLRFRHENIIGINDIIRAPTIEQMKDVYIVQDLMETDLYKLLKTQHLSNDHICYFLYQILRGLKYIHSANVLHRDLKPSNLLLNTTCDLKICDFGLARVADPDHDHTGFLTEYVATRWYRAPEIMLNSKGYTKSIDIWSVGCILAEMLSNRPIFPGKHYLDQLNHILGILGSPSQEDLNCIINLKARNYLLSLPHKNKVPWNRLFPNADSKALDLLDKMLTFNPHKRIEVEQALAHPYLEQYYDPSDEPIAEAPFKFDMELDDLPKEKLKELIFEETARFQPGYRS

ELISA (S/N): 25.6 S/N
B1: Erk2-binding clone group J (RNF8-FHA domain-modified protein) (designed binder, not shown: large carriers)
chain: GEPGFFVTGDRAGGRSWCLRRVGMSAGWLLLEDGCEVTVGFGTGVTYQLVSKYLPSWFTYNHCVLKQNPEGQWTIMDNKSLTGVWLNRARLEPLRVYSIHQGDYIQLGSLREXSENAEYEYEVTEEDWETIYPCLSPKNDQMIEKN
modifications: not fully specified; X: residue not identified in the source; also: N-terminal MBP-Strep/FLAG fusion partner, sequence not given here
